This is an account of results in patent US11332546B2, “Protease inhibitory antibodies and methods of use thereof” (The Regents of The University of California, priority 2019, dated 2022).

Residue numbers refer to the chain shown, from its start.

For one data set, the system named is cdMMP-9. As to the kind of experiment: FRET inhibition selectivity test, cdMMP-9 (Example 1). The data set is classed as biochemical. The following applies: Fab at 500 nM.
The target in a further data set is cdMMP-14 (Homo sapiens, UniProt P50281). As to the kind of experiment: In vitro proteolytic stability of Fab with its target protease (cdMMP-14). The data set is classed as physicochemical. More on the design: human MMP-14 (residue 114-320); hexahistidine (C); made in house; host or cells: E. coli (periplasm). The following applies: 1 μM Fab with 1 μM protease, 37° C., 24 hours, SDS-PAGE.

For another data set, the target named is T1, BACE2 (Homo sapiens, UniProt Q9Y5Z0).
T1 sequence (Q9Y5Z0 63-518): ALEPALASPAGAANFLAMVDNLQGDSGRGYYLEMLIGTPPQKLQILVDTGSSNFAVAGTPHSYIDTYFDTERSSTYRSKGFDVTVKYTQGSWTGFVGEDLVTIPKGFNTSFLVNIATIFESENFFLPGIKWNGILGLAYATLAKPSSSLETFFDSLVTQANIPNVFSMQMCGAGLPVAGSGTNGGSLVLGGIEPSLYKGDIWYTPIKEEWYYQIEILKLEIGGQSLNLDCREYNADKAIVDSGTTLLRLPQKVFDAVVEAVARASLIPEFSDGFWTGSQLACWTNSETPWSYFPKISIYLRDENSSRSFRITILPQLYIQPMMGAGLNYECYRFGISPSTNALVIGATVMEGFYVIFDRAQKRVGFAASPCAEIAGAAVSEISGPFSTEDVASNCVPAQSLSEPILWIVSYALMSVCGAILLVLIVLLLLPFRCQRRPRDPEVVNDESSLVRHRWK
As to the kind of experiment: FRET inhibition selectivity test, BACE2. The data set is classed as biochemical. As to conditions: IgG.

In data set [1] the target is T2, BACE1 (Homo sapiens, UniProt P56817).
T2 construct: human β-secretase 1 (BACE1, residue 46-457); made in house; host or cells: HEK293F (secreted, protein A purified)
The data set is described as follows: Amyloid precursor protein (MBP-APP571-696) degradation by BACE1. The data set is classed as biochemical. As to conditions: 1 μM IgG, 1 μM BACE1, 5 μM MBP-APP, 37° C., 24 h; 86% without IgG.
Method: For amyloid precursor protein (APP) degradation studies, APP571-696 was cloned to the C-terminal of maltose binding protein (MBP) for E. coli expression and purified using amylose resin (NEB). 5 μM purified MBP-APP was incubated with 1 μM BACE1-Fc in the absence or presence of 1 μM IgG in BACE1 assay buffer at 37° C. for 24 h. In addition, APP571-696 was cloned to a pcDNA plasmid carrying a SPE leader for secretion expression. Transfected HEK293F cells were cultured in Expi293 media for 72 hrs with the presence of 14-800 nM purified IgG. The supernatants were clarified by centrifugation and 0.45 μm filtration, and produced Aβ1-40 was quantified by ELISA (Abcam).

The target in data set [2] is T2, BACE1. The data set is described as follows: FRET peptide inhibition assay, BACE1 (M-2420). The following applies: IgG format; BACE-1, FRET peptide. In kind it is biochemical.
Method: (§1) For inhibition tests, 1 μM Fabs were 2-fold serially diluted into protease specific assay buffer and incubated with 1-10 nM proteases for 30 min at room temperature. […] Inhibition percentages at given concentrations were calculated by comparing the initial reaction rates in the presence or absence of inhibitor. IC50 was determined as the concentration that achieved 50% inhibition, and KI values were calculated using KI=IC50/(S/Km+1). Vmax and Km at various Fab concentrations were measured to determine the inhibition type. FRET inhibition assays were also used for selectivity tests of isolated Fabs with the relevant proteases.

T2 sequence (P56817 46-457): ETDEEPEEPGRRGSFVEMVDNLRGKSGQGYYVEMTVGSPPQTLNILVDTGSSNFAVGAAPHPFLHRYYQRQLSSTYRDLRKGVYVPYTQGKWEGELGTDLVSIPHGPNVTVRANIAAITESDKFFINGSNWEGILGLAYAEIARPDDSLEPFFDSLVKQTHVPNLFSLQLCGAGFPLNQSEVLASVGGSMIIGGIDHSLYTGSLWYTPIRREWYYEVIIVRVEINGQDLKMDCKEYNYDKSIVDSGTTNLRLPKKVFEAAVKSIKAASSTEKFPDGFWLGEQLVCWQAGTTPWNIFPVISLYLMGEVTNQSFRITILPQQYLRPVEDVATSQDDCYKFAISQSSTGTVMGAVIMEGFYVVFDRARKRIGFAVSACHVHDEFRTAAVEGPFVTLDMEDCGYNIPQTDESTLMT
Method for BACE2: as §1
Method for cdMMP-9: as §1

B1: Fab 2B4: anti-MMP-14 antibody clone; VL SEQ ID NO:88, VH SEQ ID NO:1, CDR-H3 SEQ ID NO:4 (antibody, V domains shown)
VH: EVQLVESGGGLVQPGGSLRLSCAASGFNLYSSYIHWVRQAPGKGLEWVASIYSSYSSTYYADSVKGRFTISADTSKNTAYLQMNSLRAEDTAVYYCARSDSAVYSVRRMGSSGLAAYAMDYWGQGTLVTVSSAS
VL: DIQMTQSPSSLSASVGDRVTITCRASQSVSSAVAWYQQKPGKAPKLLIYSASSLYSGVPSRFSGSRSGTDFTLTISSLQPEDFATYYCQQYSYGYSSLITFGQGTKVEIKR
For the molecule B1, the “Inhibition of cdMMP-9 (selectivity)” value in the data set on cdMMP-9 was “did not inhibit”. For the same molecule, the “Fab remained intact after exposure to protease” value with cdMMP-14 was 76%.

B2: IgG B1A4: anti-BACE1 inhibitory Fab B1A4 converted into IgG format (antibody, V domains shown)
VH: EVQLVESGGGLVQPGGSLRLSCAASGFNISYSSIHWVRQAPGKGLEWVAYISPSSSYTSYADSVKGRFTISADTSKNTAYLQMNSLRAEDTAVYYCARHYYVSVGSGIDYWGQGTLVTVSSAS
VL: B1 VL with L73P, Y91A, Y93A, G94S, Y95P, S96Y, S97A
Turning to B2, the “Inhibition of BACE2 (selectivity)” value in the data set with BACE2 is given as “but not BACE2”. Further, the “Cleavage of APP571-696 by BACE1 in presence of IgG” value with BACE1 [1] came out at 37%. Moreover, in the data set with BACE1 [2], the “Inhibition Potency KI (associated IgG, in parentheses)” value was 35 nM.
